B1: caspase-3 (protein)
chain: SGISLDNSYKMDYPEMGLCIIINNKNFHKSTGMTSRSGTDVDAANLRETFRNLKYEVRNKNDLTREEIVELMRDVSKEDHSKRSSFVCVLLSHGEEGIIFGTNGPVDLKKITNFFRGDRCRSLTGKPKLFIIQACRGTELDCGIETDSGVDDDMACHKIPVEADFLYAYSTAPGYYSWRNSKDGSWFIQSLCAMLKQYADKLEFMHILTRVNRKVATEFESFSFDATFHAKKQIPCIVSMLTKELYFYH
B2: caspase-8 (protein)
chain 1: SESQTLDKVYQMKSKPRGYCLIINNHNFAKAREKVPKLHSIRDRNGTHLDAGALTTTFEELHFEIKPHDDCTVEQIYEILKIYQLMDHSNMDCFICCILSHGDKGIIYGTDGQEAPIYELTSQFTGLKCPSLAGKPKVFFIQACQGDNYQKGIPVETD
chain 2: LSSPQTRYIPDEADFLLGMATVNNCVSYRNPAEGTWYIQSLCQSLRERCPRGDDILTILTEVNYEVSNKDDKKNMGKQMPQPTFTLRKKLVFPSD

Experiments:
[1] = molecular target: T1, Ac-DEVD-CHO, N-(N-Ac-Asp-Glu-Val)-3-amino-4-oxobutanoic acid
T1 chain: DEVD

[2] = molecular target: nuclear mitotic apparatus protein
[3] = molecular target: poly(ADP-ribose) polymerase
PMS1, P54277 = molecular target: T2, PMS1, P54277
T2 chain: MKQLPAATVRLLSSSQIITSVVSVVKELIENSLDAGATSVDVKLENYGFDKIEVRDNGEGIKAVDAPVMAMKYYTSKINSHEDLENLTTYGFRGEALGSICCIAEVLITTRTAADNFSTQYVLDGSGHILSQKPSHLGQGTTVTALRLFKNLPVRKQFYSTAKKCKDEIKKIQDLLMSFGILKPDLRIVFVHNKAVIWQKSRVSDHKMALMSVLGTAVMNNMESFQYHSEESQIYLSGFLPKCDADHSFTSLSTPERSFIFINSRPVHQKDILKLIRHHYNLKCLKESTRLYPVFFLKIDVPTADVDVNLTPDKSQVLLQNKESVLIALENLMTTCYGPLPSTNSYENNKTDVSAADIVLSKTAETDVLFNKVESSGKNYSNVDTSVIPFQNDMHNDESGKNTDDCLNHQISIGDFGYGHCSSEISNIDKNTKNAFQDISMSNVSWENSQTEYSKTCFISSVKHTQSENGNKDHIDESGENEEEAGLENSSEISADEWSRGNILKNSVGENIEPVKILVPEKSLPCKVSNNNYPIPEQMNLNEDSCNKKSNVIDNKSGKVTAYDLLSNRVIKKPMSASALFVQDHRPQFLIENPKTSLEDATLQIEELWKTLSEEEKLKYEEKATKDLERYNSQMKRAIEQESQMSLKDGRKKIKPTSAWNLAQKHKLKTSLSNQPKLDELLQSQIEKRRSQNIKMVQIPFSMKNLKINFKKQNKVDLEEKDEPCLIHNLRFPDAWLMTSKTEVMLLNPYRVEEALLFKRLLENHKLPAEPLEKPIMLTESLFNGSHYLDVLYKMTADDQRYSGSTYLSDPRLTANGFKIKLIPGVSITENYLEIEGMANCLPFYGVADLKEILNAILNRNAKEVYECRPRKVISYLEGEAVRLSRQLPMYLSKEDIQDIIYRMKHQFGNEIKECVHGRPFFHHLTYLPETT

PMS2, P54278 = molecular target: T3, PMS2, P54278
T3 chain: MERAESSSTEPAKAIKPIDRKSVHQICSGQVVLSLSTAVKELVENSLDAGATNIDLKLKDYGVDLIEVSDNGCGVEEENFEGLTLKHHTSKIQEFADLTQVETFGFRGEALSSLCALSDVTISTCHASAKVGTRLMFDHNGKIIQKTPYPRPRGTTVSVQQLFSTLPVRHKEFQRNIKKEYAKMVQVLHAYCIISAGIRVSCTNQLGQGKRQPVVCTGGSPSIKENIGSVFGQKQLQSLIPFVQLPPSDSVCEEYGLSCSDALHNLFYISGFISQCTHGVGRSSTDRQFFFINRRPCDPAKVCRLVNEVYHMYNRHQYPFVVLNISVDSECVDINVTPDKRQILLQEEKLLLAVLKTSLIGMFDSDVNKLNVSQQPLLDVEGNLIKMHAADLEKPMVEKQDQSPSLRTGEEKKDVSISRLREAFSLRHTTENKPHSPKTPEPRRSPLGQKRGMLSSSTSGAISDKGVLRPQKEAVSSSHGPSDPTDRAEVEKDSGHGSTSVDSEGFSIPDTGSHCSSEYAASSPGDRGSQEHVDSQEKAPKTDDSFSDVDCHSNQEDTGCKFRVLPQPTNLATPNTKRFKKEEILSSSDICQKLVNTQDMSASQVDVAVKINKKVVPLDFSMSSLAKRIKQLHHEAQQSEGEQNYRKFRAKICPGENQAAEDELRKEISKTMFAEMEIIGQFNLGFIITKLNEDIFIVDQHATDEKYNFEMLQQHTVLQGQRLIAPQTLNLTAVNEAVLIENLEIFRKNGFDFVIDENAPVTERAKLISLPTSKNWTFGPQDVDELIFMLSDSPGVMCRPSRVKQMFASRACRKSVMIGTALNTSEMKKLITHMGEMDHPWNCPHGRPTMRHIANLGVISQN

[4] = molecular target: RNA polymerase II large subunit, P24928
SRP-72, O76094 = molecular target: T4, SRP-72, O76094
T4 chain: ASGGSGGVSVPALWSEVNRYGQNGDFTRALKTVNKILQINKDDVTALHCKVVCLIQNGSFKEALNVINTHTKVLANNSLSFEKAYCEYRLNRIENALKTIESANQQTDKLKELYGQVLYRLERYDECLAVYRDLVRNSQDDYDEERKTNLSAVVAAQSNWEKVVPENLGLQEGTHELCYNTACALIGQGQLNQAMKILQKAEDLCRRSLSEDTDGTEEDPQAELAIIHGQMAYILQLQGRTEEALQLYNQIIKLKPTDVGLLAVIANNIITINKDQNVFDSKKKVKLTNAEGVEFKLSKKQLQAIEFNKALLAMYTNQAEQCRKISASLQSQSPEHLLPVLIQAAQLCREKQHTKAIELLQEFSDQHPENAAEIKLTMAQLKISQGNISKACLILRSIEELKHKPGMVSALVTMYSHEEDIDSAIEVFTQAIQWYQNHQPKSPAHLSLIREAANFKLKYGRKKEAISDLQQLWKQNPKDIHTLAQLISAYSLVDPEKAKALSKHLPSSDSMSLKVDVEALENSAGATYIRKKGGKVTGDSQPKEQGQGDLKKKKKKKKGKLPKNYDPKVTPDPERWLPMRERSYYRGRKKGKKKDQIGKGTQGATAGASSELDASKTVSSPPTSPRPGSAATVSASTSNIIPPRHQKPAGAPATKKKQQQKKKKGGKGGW

Topoisomerase I, P11387 = molecular target: T5, Topoisomerase I, P11387
T5 chain: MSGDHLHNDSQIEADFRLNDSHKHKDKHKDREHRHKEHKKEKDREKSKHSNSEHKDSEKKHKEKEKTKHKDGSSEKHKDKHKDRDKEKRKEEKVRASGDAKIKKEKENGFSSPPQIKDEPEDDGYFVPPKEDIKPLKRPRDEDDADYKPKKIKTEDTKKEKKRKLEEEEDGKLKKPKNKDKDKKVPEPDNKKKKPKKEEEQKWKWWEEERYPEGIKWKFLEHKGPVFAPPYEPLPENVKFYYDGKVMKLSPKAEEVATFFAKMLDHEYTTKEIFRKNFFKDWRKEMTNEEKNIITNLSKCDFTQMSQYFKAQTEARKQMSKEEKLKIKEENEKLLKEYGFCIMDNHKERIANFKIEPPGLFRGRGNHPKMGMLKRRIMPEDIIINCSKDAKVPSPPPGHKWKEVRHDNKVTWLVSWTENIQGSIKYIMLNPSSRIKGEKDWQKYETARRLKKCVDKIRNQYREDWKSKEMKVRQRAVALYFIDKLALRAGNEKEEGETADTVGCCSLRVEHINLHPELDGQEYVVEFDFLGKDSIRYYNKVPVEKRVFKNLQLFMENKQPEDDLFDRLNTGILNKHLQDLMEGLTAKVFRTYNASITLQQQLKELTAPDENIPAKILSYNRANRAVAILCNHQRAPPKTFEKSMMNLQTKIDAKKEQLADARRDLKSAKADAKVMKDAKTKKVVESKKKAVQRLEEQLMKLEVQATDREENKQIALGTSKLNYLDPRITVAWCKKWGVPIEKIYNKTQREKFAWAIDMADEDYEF

Chain of nuclear mitotic apparatus protein (chain, as listed by the source): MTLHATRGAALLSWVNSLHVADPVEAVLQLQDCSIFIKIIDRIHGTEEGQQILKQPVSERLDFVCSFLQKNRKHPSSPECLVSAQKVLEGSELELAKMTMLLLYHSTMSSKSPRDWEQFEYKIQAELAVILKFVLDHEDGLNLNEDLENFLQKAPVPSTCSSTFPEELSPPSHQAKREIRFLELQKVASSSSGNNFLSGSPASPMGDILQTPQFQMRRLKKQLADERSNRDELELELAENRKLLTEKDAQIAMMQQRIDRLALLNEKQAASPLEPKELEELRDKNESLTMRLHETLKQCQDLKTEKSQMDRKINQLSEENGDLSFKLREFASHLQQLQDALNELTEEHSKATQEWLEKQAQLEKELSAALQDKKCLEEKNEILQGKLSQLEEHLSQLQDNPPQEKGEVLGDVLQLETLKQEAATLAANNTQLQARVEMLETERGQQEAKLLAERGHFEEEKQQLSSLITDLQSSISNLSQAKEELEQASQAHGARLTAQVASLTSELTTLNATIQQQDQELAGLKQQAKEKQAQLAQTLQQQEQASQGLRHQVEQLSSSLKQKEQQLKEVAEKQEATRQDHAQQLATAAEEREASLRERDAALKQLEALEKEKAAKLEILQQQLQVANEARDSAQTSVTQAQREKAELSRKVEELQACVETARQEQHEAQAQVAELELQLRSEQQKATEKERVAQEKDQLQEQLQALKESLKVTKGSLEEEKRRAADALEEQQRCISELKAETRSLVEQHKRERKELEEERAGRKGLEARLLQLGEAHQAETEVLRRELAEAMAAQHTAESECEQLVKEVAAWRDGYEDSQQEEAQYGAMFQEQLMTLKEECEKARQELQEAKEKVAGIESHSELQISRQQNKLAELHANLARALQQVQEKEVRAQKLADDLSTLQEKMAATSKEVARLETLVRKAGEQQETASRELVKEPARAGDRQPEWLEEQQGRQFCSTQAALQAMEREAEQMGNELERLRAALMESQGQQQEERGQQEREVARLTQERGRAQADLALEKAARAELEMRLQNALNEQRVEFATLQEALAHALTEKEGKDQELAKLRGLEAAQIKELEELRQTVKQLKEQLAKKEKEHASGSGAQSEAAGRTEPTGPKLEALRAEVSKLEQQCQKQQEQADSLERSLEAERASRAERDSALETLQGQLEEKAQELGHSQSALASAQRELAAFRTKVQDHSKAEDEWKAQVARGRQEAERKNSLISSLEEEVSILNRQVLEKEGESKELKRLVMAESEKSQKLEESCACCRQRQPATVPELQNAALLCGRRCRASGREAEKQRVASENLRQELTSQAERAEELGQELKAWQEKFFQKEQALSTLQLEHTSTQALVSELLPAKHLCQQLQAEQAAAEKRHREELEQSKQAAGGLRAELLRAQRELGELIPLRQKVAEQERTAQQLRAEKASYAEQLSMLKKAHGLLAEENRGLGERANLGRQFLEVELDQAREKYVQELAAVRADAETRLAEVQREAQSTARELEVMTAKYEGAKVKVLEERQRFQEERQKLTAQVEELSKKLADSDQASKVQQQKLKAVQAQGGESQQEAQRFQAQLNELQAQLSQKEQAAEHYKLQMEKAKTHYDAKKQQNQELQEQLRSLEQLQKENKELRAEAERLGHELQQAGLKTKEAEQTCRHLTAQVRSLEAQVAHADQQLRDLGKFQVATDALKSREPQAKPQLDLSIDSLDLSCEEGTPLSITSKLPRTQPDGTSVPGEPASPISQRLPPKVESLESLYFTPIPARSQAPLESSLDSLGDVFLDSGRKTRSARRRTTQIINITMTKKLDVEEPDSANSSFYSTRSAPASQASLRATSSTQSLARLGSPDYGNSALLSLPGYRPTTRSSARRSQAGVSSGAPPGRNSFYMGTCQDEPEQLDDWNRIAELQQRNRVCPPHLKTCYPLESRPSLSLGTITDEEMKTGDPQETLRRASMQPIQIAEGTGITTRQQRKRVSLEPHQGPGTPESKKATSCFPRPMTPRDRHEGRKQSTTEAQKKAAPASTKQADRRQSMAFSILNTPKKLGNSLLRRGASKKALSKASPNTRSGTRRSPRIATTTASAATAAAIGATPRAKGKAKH
Chain of U1-70 kDa, P08621 (P08621 whole entry): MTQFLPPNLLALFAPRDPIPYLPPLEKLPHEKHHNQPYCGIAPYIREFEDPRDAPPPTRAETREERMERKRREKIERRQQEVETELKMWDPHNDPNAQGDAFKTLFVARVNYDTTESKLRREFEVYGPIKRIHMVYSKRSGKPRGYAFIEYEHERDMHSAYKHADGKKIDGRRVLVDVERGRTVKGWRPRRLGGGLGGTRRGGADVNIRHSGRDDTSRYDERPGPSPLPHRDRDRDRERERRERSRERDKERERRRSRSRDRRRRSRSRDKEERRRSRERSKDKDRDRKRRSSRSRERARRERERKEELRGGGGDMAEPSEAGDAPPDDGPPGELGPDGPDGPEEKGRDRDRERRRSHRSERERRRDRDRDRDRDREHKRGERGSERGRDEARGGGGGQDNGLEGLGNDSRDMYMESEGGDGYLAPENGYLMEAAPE
Chain of Ku-70, P12956 (P12956 2-609): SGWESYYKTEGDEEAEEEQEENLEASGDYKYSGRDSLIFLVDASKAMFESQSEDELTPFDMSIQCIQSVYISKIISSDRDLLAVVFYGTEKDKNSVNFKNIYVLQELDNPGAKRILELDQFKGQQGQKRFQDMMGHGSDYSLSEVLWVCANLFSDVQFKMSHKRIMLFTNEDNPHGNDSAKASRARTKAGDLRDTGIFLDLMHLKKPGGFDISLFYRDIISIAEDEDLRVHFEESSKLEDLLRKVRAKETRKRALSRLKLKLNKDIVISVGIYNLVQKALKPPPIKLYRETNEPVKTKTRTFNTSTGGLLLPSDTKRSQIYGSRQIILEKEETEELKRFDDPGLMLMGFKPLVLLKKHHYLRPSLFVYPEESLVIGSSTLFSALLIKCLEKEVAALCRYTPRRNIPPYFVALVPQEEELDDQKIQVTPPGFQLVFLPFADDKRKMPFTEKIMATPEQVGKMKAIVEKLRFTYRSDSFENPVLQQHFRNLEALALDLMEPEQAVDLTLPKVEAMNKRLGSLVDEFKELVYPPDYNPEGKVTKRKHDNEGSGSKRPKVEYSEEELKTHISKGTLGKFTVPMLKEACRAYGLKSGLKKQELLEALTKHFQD

Protein | generation of caspase-3 substrate fragments in HeLa lysate, immunoblotting [1] | kcat/Km [2] | kcat/Km [3] | cleavage in iodoacetamide-treated HeLa lysate with 50 nM caspase-8 (Ki-67, P46013) | cleavage in iodoacetamide-treated HeLa lysate with 50 nM caspase-8 (Ku-70, P12956) | cleavage in iodoacetamide-treated HeLa lysate with 50 nM caspase-8 (Mi-2) | cleavage of radiolabelled IvTT protein (PMS1, P54277) | cleavage of radiolabelled IvTT protein (PMS2, P54278) | cleavage in iodoacetamide-treated HeLa lysate with 50 nM caspase-8 [4] | cleavage in iodoacetamide-treated HeLa lysate with 50 nM caspase-8 (SRP-72, O76094) | cleavage in iodoacetamide-treated HeLa lysate with 50 nM caspase-8 (Topoisomerase I, P11387) | cleavage in iodoacetamide-treated HeLa lysate with 50 nM caspase-8 (U1-70 kDa, P08621) | cleavage in iodoacetamide-treated HeLa lysate with 50 nM caspase-8 [2] | cleavage in iodoacetamide-treated HeLa lysate with 50 nM caspase-8 [3]
B1 | entirely abolished by 100 nM Ac-DEVD-CHO | 500000 M⁻¹ s⁻¹ | 5e+06 M⁻¹ s⁻¹ |  |  |  |  |  |  |  |  |  |  | 
B2 |  |  |  | No cleavage | No cleavage | No cleavage | also not cleaved by purified caspase-8 | also not cleaved by purified caspase-8 | No cleavage | No cleavage | No cleavage | No cleavage | No cleavage | No cleavage

— patent US6855515
